The results in this text go back to US20160326264A1 (SORRENTO THERAPEUTICS, published 2016).

“And” between values parts separate entries of the source, which are not always exact repeats. Equal entries are not always repeated.

One may read the EC50 as the concentration at which the effect is half-maximal. Read a low EC50 as greater potency. In general, Kd refers to the concentration at which binding is half-saturated. The term kon denotes the second-order rate constant of association. A word on the koff: it is the rate constant with which the complex falls apart.

Experiment [1] has as its target T1, endogenous human PSMA (prostate-specific membrane antigen) expressed on LNCaP human prostate cancer cells (human, UniProt Q04609 1-750). The experiment can be described thus: cell-based or functional assay.
Experiment [2] addresses T1, endogenous human PSMA …. The experiment in a line: flow cytometry on LNCaP cells. How it is done:
PSMA expressing LNCaP cells were harvested with enzyme-free Cell Dissociation Buffer (GIBCO) and transferred to V-Bottom 96 well-plates (50,000 cells/well). Cells were incubated on ice for 45 min with serial dilutions of anti-PSMA antibodies PSGB11, PSGB12, PSGC12, PSGD4, PSGD6 and PSA11 in FACS buffer (PBS+ 2% FBS)+NaN₃. […] After 1 wash in FACS buffer, a 1:1000 dilution of Phycoerythrin conjugated anti-Human IgG (γ-chain specific) was added and incubated for 30 min Following a final wash, fluorescence intensity was measured on an Intellicyt High Throughput Flow Cytometer (HTFC).
Data were analyzed using Graphpad Prism software and non-linear regression fit. Data points are shown as the median fluorescence intensity (MFI) of positively labeled cells +/−Standard Error. EC₅₀ values are reported as the concentration of antibody to achieve 50% of maximal PSMA antibodies binding to PSMA expressing cells.

The target of experiment [3] is T2, recombinant human PSMA/His (human, UniProt Q04609 44-750).
T2 construct: not shown: His tag
The experiment in a line: BLI (Octet), antibody amine-coupled to AR2G sensor, PSMA/His in solution, 1:1 model; FIG. 4, second antibody (PSGB11; printed as PSA11). As for the experimental part:
(§1) Specifically, an amine Reactive Second-Generation (AR2G) sensor was coated with antibody (15 ug/ml in acetic buffer, pH5.0) using Sulfo-N-hydroxysuccinimide/N-Ethyl-N′-(3-dimethylaminopropyl)carbodiimide hydrochloride (Sulfo-NHS/EDC) coupling methodology. The sensors were quenched with 1M pH 8.5 ethanolamine Data was collected by moving sensors to serially diluted recombinant human PSMA/His (in PBS buffer) wells, then the data was dissociated by transferring the sensors to PBS wells. A 1:1 binding model was used to fit the data.
A general note: In BLI a coated tip is dipped into the sample, and binding shifts an interference pattern.

In experiment [4] the target is T2, recombinant human PSMA/His. The experiment in a line: Octet biolayer interferometry, antibody amine-coupled to AR2G sensor, recombinant human PSMA/His in solution at 2.15 to 68.8 nM, global 1:1 fit (same value in all 6 rows). How it is done: as §1
For experiment [5], the target named is T2, recombinant human PSMA/His. The experiment in a line: Octet biolayer interferometry, antibody amine-coupled to AR2G sensor, recombinant human PSMA/His in solution at 2.15 to 68.8 nM, global 1:1 fit; column headed kdis(1/s) (same value in all 6 rows). How it is done:
as §1

T2 sequence (Q04609 44-750 limits assumed): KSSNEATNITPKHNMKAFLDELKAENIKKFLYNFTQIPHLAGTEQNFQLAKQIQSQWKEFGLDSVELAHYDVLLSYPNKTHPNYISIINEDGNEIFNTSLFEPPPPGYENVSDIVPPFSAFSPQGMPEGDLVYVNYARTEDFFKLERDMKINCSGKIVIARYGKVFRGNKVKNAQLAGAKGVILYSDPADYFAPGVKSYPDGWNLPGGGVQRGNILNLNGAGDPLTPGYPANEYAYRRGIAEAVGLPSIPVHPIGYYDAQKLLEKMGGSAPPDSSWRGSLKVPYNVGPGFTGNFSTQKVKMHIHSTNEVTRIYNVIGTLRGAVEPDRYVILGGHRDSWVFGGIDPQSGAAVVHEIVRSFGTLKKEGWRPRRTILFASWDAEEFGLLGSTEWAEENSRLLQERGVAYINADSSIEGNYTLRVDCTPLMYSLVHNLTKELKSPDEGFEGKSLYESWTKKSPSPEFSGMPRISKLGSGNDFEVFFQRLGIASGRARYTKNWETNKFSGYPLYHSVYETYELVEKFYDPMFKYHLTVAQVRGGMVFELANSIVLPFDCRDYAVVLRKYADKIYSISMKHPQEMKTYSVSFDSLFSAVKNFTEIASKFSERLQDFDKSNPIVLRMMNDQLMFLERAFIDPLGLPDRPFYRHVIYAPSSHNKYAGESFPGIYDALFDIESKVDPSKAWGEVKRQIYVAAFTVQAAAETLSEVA
T1 sequence (Q04609 whole entry): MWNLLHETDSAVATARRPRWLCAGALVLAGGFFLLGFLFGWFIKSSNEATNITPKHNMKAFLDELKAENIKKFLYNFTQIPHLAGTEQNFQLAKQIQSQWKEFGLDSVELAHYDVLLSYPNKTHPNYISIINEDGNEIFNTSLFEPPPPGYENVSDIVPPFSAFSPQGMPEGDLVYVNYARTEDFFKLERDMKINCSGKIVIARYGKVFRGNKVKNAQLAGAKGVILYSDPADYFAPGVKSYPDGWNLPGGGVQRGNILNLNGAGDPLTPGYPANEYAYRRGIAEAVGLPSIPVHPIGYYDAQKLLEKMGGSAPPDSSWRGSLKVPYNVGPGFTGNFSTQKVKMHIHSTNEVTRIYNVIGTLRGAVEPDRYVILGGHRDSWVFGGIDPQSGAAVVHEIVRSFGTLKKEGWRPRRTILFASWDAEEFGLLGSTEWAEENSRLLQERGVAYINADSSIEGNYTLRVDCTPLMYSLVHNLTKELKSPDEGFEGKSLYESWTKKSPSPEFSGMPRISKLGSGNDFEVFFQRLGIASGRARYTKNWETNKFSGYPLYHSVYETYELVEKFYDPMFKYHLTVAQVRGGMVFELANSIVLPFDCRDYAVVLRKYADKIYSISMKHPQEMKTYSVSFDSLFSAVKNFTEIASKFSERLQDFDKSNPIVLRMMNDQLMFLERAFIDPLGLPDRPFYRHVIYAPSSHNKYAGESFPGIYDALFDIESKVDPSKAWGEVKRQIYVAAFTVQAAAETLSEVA

B1: anti-PSMA antibody PSGB11 (antibody, V domains shown)
VH: QVQLVQSGGGLVQPGGSLRLSCAASGFTFSSYWMSWVRQAPGKGLEWVANIKQDGSEKYYVDSVKGRFTISRDNAKNSLYLQMNSLRAEDTAVYYCARVWDYYYDSSGDAFDIWGQGTMVTVSS
VL: EIVLTQSPSTLSASVGDRVTITCRASQSISSWLAWYQQKPGKAPRLLIYAASILQRGVPSRFSGSGSETDFTLTISSLQPEDLATYYCQETYSNLFTFGPGTKVDIK
notes: Fully human IgG
For the molecule B1, in experiment [1], the “Cell killing, 2-hours-wash method (IC50, nM); antibody pre-complexed with Protein G-MMAF, LNCaP cells, Cell Titer Glo” value worked out at 1.6 nM and the “Cell killing, No wash method (IC50, nM); antibody pre-complexed with Protein G-MMAF, LNCaP cells, Cell Titer Glo” value was 0.04 nM. Also, in experiment [2], the EC50 is 1.98 nM and 1.83 nM. In addition, the Kd in experiment [3] is roughly 0.68 nM. In experiment [4], the Kd amounted to 0.677 nM and the kon came out at 97000 M⁻¹ s⁻¹. The dissociation rate constant (koff) in experiment [5] was 6.57e-05 s⁻¹.
